In patent US20030170653A1, “Biological method for the production of tuliposide A and its intermediates” (priority 2001, published 2003):

B1: GHBD1: γ-hydroxybutyrate dehydrogenase homolog from tulip pistil (SEQ ID NO: 14), expressed from pTrcEtp (protein)
chain: MEVGFLGLGIMGKAMAVNLLRSGFRVTVWNRTLSKCNELLEQGASVGETPAAVIKKCKYTIAMLSDPSAALSVVFDKDGVLEHMSSGKGYIDMSTVDAVTSSKISEAITQKGGHFLEAPVSGSKKPAEDGQLVILAAGEKALYEEIIPAFEVLGKKSFFLGQVGNGANMKLIVNMIMGSMMNALSEGLSLAGKSGLEQKTLLDVLDLGAIANPMFKLKGPAMIQNNHPPAFPLKHQQKDMRLALALGDENAVSMPVAAAANEAFKKARSLGLGDLDFSAVYEVLKYGDAS
modifications: tulip pistil
B2: GHBD2: γ-hydroxybutyrate dehydrogenase homolog from Arabidopsis (SEQ ID NO: 16), expressed from pTrcAds (protein)
chain: MEVGFLGLGIMGKAMSMNLLKNGFKVTVWNRTLSKCDELVEHGASVCESPAEVIKKCKYTIAMLSDPCAALSVVFDKGGVLEQICEGKGYIDMSTVDAETSLKINEAITGKGGRFVEGPVSGSKKPAEDGQLIILAAGDKALFEESIPAFDVLGKRSFYLGQVGNGAKMKLIVNMIMGSMMNAFSEGLVLADKSGLSSDTLLDILDLGAMTNPMFKGKGPSMNKSSYPPAFPLKHQQKDMRLALALGDENAVSMPVAAAANEAFKKARSLGLGDLDFSAVIEAVKFSRE
modifications: Arabidopsis

What was measured:
Format in all cases: biochemical
[1] = Kinetic analysis of purified dehydrogenases with succinatesemialdehyde and NADPH; conditions: purified enzyme 3 μg/mL, succinatesemialdehyde 0.1-30 mM, 0.5 mM NADPH, pH 7.0
Description: Cultures were grown at 37° C. for 5 h and then were transferred to 100 mL of LB liquid media containing ampicillin (100 μg/mL). These were grown overnight at room temperature. The next morning, 50 mL of each culture was transferred to 1 L of LB and grown at room temperature until the OD600 nm reached 0.8. IPTG was added to the cultures to a concentration of 0.4 mM and cultures were grown for an additional 4 h at room temperature. The cultures were then centrifuged at 10,000× g for 15 min, the supernatant was decanted and the resulting pellet was resuspended in 10 mL of breakage buffer (100 mM HEPES, pH 7.2; 10 % glycerol; 1 mM AEBSF; 1 μg/mL leupeptin; and 1 μg/mL pepstatin). Cells were broken by passage two times through a french press and the resulting extract was centrifuged at 16,000× g for 15 min at 4° C. The supernatant was carefully removed and 40 mL of Ni loading buffer (20 mM sodium phosphate, pH 7.5; 10 mM immidazole; 500 mM sodium chloride) was added. Proteins were loaded onto a 5 mL Hitrap chelating column (Pharmacia, Inc.) pre-equilibrated with 100 mM nickel sulfate and washed with 20 mL of loading buffer. Another wash with 50 mL of loading buffer containing 60 mM immidazole was carried out and bound proteins were eluted with a gradient of loading buffer containing immidazole from 60 mM to 1000 mM. All fractions were analyzed by SDS-PAGE.
(§1) All proteins eluted at around 120 mM immidazole. Purified proteins from pTrcAds and pTrcEtp were assayed with succinatesemialdehyde and NADPH as described above. […] Assays contained 0.5 mM NADPH, 100 mM sodium phosphate (pH 7.0), 1 mg/mL BSA, succinatesemialdehyde and enzyme in 200 μL total. Assays were carried out at various concentrations of succinatesemialdehyde (0.1-30 mM) using 3 μg/mL of each enzyme. Under these conditions, the kinetic parameters for the Arabidopsis dehydrogenase (kcat=1290 min-1, KM=4 mM) and the Tulip dehydrogenase (kcat=1200 min^−1, KM=3 mM) were determined. The ablility of each enzyme to reduce to α-methylenesuccinatesemialdehyde to α-methylene-γ-hydroxybutyrate was assessed in a coupled assay. The GABT protein from E. coli, purified as described above, was used to generate α-methylenesuccinatesemialdehyde from α-methylene-γ-aminobutyrate. This assay was carried out in the presence or absence of the Arabidopsis and Tulip dehydrogenase. […] To this was added either the Arabidopsis or Tulip protein (20 μg/mL and 3 μg/mL) or no additional protein as negative control. Assays were incubated at room temperature for 30 min and the reaction was stopped with 10% HCl. Acidification of the assay also served to partially convert α-methylene-γ-hydroxybutyrate to α-methylene-γ-butyrolactone (MBL). […] Compounds were detected with a Waters 9600 PDA detector. […]

[2] = Dehydrogenase assay of protein extracts, oxidation of NADPH or NADH at 340 nm; conditions: 1.5 mM succinic semialdehyde; for activity with NADH as electron donator: 0.5 mM NADH; for specific activity: 0.5 mM NADPH, pH 7.2, room temperature, protein extract
Description: Plasmids pTrcEtp and pTrcAds were retransformed into TOP10 cells and freshly plated transformants were used in gene expression studies. In addition, the pTrcHis-TOPO/lacZ plasmid (Invitrogen) was also transformed into TOP10 cells to be used as a negative control in expression experiments. Freshly transformed Escherichia coli colonies containing pTrcEtp, pTrcAds or pTrcHis-TOPO/lacZ were inoculated into 2 mL of LB liquid media containing ampicillin (100 μg/mL) and grown at 37° C. for 5 h. These were then transferred to 100 mL of LB liquid media containing ampicillin (100 μg/mL) and cultures were grown overnight at room temperature. The next morning, the cultures were diluted to an OD600 nm of 0.2 and were grown at room temperature until the OD600 nm reached 0.8. IPTG was added to the cultures to a concentration of 0.4 mM and cultures were grown for an additional 3 h at room temperature. The cultures were then centrifuged at 10,000× g for 15 min, the supernatant was decanted and the resulting pellet was resuspended in 2 mL of breakage buffer (100 mM HEPES, pH 7.2; 10 % glycerol; 1 mM AEBSF; 1 μg/mL leupeptin; and 1 μg/mL pepstatin). Cells were broken by passage two times through a french press and the resulting extract was centrifuged at 16,000× g for 15 min at 4° C. The supernatant was carefully removed (soluble protein) and the pellet was resuspended in 1 mL of breakage buffer. An additional 1 mL of breakage buffer containing 12 mM CHAPS was added and after mixing and incubation on ice for 30 min, the mixture was centrifuged at 16,000× g for 15 min at 4° C. The supernatant was carefully removed (CHAPS soluble protein) and the pellet was resuspended in 2 mL of breakage buffer (insoluble protein).
Protein extracts (soluble, CHAPS soluble and insoluble) from TOP10 cells containing pTrcEtp, pTrcAds and pTrcHis-TOPO/lacZ were assayed by measuring the oxidation of NADPH or NADH using the decrease in absorbance at 340 nm (Hearl et al., J. Biol. Chem. 260:16361-16366 (1985)). Assays contained 100 mM potassium phosphate (pH 7.2), 10% glycerol, 1.5 mM succinic semialdehyde, 0.5 mM of either NADPH or NADH and from 10 μg-400 μg of enzyme extract in a total volume of 1 mL. Assays were initiated by addition of succinic semialdehyde and were measured at room temperature. Protein concentrations of each extract were determined using the BioRad protein assay (Biorad). Protein extracts were also analyzed by SDS-PAGE.

[3] = Coupled assay with purified GABT: reduction of α-methylenesuccinatesemialdehyde, MBL detected by HPLC; conditions: coupled with 100 μg GABT, 1 mM α-methylene-γ-aminobutyrate, 0.5 mM NADPH, room temperature, 30 min
Description: as §1

Molecule	Km [1] [mM]	kcat [1] [min⁻¹]	activity with NADH as electron donator [2]	specific activity [2] [μmol/min^−1/mg^−1]	conversion of α-methylenesuccinatesemialdehyde [3]
B1	3	1200	no activity	0.14	could convert
B2	4	1290	no activity	0.097	could convert
